Key:
[1] = molecular target: T1, turkey egg-white lysozyme (turkey, UniProt P00703 19-147); assay: phage ELISA on plates coated with TEL; signal on BSA subtracted
T1 construct: also called turkey egg lysozyme; turkey lysozyme

[2] = molecular target: T2, bovine serum albumin (bovine, UniProt P02769 25-607); assay: phage ELISA (FIG. 51, clone 3)
T2 construct: also called BSA

[3] = molecular target: T3, hen egg-white lysozyme (hen, UniProt P00698 19-147); assay: phage ELISA on plates coated with HEL; signal on BSA subtracted
T3 construct: also called HEL; hen egg lysozyme

[4] = molecular target: T2, bovine serum albumin; assay: phage ELISA (FIG. 51, clone 9)
[5] = molecular target: T2, bovine serum albumin; assay: phage ELISA, antigens coated at 200 µg/ml, average absorbance of duplicates after 10 minutes
[6] = molecular target: T4, human lysozyme (human, UniProt P61626 19-148); assay: phage ELISA, antigen coated at 1 mg/ml, sheep anti-M13 serum
T4 construct: also called HUL
T4 sequence (looked up): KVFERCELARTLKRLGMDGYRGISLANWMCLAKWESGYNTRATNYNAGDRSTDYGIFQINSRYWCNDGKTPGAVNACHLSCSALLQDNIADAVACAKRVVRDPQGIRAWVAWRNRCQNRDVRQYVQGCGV

[7] = molecular target: T2, bovine serum albumin; assay: phage ELISA (FIG. 51, clone 1)
[8] = molecular target: T1, turkey egg-white lysozyme; assay: phage ELISA on turkey egg white lysozyme after 4 rounds of selection

T2 sequence (P02769 25-607 limits assumed): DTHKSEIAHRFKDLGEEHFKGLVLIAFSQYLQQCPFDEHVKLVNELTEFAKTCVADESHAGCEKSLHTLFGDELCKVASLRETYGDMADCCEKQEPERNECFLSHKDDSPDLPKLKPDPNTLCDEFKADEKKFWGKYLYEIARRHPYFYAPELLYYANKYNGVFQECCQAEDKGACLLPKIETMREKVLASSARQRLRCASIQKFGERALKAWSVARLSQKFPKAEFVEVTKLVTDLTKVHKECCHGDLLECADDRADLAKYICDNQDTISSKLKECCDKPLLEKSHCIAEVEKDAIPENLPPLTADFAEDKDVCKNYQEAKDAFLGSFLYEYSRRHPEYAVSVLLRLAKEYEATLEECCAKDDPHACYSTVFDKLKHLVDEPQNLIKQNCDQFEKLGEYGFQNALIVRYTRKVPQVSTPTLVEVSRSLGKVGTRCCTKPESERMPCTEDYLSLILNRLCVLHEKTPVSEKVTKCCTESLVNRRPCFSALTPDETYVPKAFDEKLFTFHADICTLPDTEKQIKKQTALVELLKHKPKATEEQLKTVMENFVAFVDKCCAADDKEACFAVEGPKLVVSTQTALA
T1 sequence (P00703 19-147): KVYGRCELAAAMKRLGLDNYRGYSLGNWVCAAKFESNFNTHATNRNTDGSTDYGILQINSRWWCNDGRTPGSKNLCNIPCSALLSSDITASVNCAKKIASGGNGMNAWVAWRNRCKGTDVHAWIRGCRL
T3 sequence (P00698 19-147 limits assumed): as the sequence (P00703 19-147) above, with Y3F, L15H, H41Q, K73R, A99V, G101D, H121Q counted along it

B1: clone MF1 (clone 3 of FIG. 51): scFv of D1.3 VH with a light chain selected from the VLK library of an unimmunised mouse (scFv)
scFv: QVQLQESGPGLVAPSQSLSITCTVSGFSLTGYGVNWVRQPPGKGLEWLGMIWGDGNTDYNSALKSRLSISKDNSKSQVFLKMNSLHTDDTARYYCARERDYRLDYWGQGTTVTVSSGGGGSGGGGSGGGGSDIELTQSPSSLSASLGERVSLTCRASQDIGSSLNWLQQEPDGTIKRLIYATSSLDSGVPKRFSGSRSGSDYSLTISSLESEDFVDYYCLQYASSPWTFGGGTKLELKR
notes: also called M1F; D1.3 M1F; not shown: fd gene III protein (g3p), the phage display partner fused after the scFv through the NotI AAA junction
B1: binds [1]; no binding [2]; binds [3].

B2: clone M21 (clone 9 of FIG. 51): scFv of D1.3 VH with a light chain selected from the VLK library of an unimmunised mouse (scFv)
scFv: QVQLQESGPGLVAPSQSLSITCTVSGFSLTGYGVNWVRQPPGKGLEWLGMIWGDGNTDYNSALKSRLSISKDNSKSQVFLKMNSLHTDDTARYYCARERDYRLDYWGQGTTVTVSSGGGGSGGGGSGGGGSDIELTQSPALMAASPGEKVTITCSVSSSISSSNLHWYQQKSETSPKPWIYGTSNLASGVPVRFSGSGSGTSYSLTISSMEAEDAATYYCQQWSSYPLTFGAGTKLEIKR
notes: not shown: fd gene III protein (g3p), the phage display partner fused after the scFv through the NotI AAA junction
B2: no binding [4]; binds [1]; binds [3].

B3: fdTscFvD1.3 (phage antibody displaying the single chain Fv of anti-lysozyme antibody D1.3) (scFv, not shown: large carriers)
scFv: QVQLQESGPGLVAPSQSLSITCTVSGFSLTGYGVNWVRQPPGKGLEWLGMIWGDGNTDYNSALKSRLSISKDNSKSQVFLKMNSLHTDDTARYYCARERDYRLDYWGQGTTVTVSSGGGGSGGGGSGGGGSDIELTQSPASLSASVGETVTITCRASGNIHNYLAWYQQKQGKSPQLLVYYTTTLADGVPSRFSGSGSGTQYSLKINSLQPEDFGSYYCQHFWSTPRTFGGGTKLEIK
modifications: scFv displayed on fd phage as a fusion near the N-terminus of g3p
notes: also called pAb D1.3; pAb (D1.3)
B3: no binding (tested: one amount, as in example 6) [5]; no binding [6].

B4: fdCAT2 scFvD1.3 phage (scFv, not shown: large carriers)
scFv: B3 scFv
modifications: scFv displayed on fd phage as an N-terminal fusion to g3p
notes: also called original D1.3 scFv
B4: no binding [7].

B5: lysozyme binder scFv from the unimmunized human library (VH13.1 / VL13.1), on phage (scFv, V domains shown)
VH: QVQLVQSGAEVKKPGQSLMISCQGSGYSFSNYWIGWVRQMPGKGLEWMGIIYPGDSDTRYSPSFQGQVTISADKSISTAYLHWSSLKASDTALYYCARLVGGTPAYWGQGT
VL: HVILTQPASVSGSPGQSITISCTGSSRDVGGYNYVSWYQHHPGKAPKLLISEVTNRPSGVSNRFSGSKSGNTASLTISGLQAEDEADYFCASYTSSKTYVFGG
notes: scFv with (Gly4Ser)3 linker on pHEN1 phagemid particles
B5: binds [8].
